In the assay the target is native B7H3 on cells (UniProt Q5ZPR3). Briefly: flow cytometry on cells with native B7H3 (taken as H358), anti-His-tag iFluor 488 detection. A general note: Flow cytometry measures light scatter and fluorescence of single cells or particles in a stream.

Our source for the EC50 and MFI values is US20260085122A1.

Chain of native B7H3 on cells (Q5ZPR3 29-534): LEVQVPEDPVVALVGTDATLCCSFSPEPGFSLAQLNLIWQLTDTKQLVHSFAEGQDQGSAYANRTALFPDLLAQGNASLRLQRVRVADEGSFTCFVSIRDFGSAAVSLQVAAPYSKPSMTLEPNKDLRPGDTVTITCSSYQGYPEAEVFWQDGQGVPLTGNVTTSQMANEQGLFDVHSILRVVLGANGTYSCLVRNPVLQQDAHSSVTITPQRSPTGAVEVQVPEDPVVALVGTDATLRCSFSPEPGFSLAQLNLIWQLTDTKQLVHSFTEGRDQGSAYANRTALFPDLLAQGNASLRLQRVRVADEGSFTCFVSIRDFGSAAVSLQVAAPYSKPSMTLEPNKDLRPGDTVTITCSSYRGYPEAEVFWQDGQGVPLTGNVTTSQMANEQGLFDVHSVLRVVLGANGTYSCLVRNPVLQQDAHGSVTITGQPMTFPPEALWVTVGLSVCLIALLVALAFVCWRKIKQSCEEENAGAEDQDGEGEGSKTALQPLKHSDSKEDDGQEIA

B1: VHH1_C002 (VHH)
VHH: EVQLLESGGGLVQPGGSLRLSCAASGFTFSDYHMSWVRQAPGKGLEWVSGILNTGLSPTYAATVTGRFTISRDNSKNTLYLQMNSLRAEDTAVYYCAQGYYRATPSQANRGQGTLVTVSS
For orientation: EC50 means the concentration needed to bring the measured effect to its halfway point. Lower therefore signals a more potent agent. B1 displayed an EC50 of 77 nM and an MFI of 539000.

B2: VHH1_C001 (VHH)
VHH: EVQLVESGGGLVQPGGSLRLSCAASPRTFQTYFMGWFRQAPGKELEWVSVINWSGGTSYYKDSVKGRFTISRDNSKNTLYLQMNSLRAEDTAVYYCAAKGSGTYDREGEYDYWGQGTLVTVSS
Consider B2, for which the half-maximal effective concentration (EC50) was 6.29 nM and the MFI was 496000.
